Series [1] concerns A549 cells. Nature of the series: ROS levels (DHE reagent) and cell viability by flow cytometry. The class given is cell-based, human. The following applies: for DHE reagent (Geometric mean) Mean: ROS level. The procedure:
In addition to inducing higher levels of apoptosis compared to the CIGB-300 peptide, the lipopeptide also triggered greater reactive oxygen species (ROS) production in A549 cells after 2 hours of incubation with the antioxidant N-acetyl-L-cysteine (NAC), as analyzed by flow cytometry (Table 2). The elevated ROS levels were correlated with the stronger inhibitory effect of the lipopeptide on cell viability. Table 2: ROS levels induced by the lipopeptide and the CIGB-300 peptide in A549 cells

In series [2] the target is Serine/arginine-rich splicing factor 8 (Homo sapiens) (UniProt Q9BRL6).
Sequence of Serine/arginine-rich splicing factor 8 (Homo sapiens) (Q9BRL6 2-282 limits assumed): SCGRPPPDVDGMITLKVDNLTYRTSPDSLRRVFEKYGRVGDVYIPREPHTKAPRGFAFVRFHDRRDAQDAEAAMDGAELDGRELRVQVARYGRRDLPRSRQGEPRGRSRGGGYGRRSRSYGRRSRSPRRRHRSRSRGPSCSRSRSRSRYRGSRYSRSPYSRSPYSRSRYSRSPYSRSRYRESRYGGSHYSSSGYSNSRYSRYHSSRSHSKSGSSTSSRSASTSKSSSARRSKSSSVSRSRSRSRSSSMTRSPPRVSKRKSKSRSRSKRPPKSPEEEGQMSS
Series [3] has as its target Replication protein A 32 kDa subunit (Homo sapiens, UniProt P15927).
Series [4] has as its target Cleavage stimulation subunit 3 (Homo sapiens) (UniProt Q12996).
The target of series [5] is Gem-associated protein 2 (Homo sapiens) (UniProt O14893).
Sequence of Gem-associated protein 2 (Homo sapiens) (O14893 whole entry): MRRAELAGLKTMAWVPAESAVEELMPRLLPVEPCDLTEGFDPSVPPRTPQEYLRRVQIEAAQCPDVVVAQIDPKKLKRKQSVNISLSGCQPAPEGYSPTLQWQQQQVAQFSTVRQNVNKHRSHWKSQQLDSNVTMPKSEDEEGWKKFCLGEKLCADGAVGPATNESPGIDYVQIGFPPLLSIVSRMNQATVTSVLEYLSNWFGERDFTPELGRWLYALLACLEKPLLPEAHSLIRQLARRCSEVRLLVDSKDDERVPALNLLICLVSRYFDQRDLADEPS
Series [6] addresses Arginyl-tRNA-protein transferase 1 (Homo sapiens, UniProt O95260).
The target in series [7] is Surfeit locus protein 2 (Homo sapiens, UniProt Q15527).
Sequence of Surfeit locus protein 2 (Q15527 whole entry): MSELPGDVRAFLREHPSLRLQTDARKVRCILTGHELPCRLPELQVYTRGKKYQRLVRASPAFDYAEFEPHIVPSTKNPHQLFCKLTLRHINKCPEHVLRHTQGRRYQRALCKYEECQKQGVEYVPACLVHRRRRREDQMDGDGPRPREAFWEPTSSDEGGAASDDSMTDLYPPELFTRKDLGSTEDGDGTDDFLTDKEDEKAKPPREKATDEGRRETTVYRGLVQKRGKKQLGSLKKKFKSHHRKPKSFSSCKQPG
Series [8] has as its target Cullin-1 (Homo sapiens, UniProt Q13616).
For series [9], the target named is Calponin-3 (Homo sapiens) (UniProt Q15417).
For series [10], the target named is Histone H2A type 2-B (Homo sapiens, UniProt Q8IUE6).
Series [11] concerns the target Collagen alpha-1(V) chain (Homo sapiens, UniProt P20908).
In series [12] the target is High mobility group protein HMGI-C (Homo sapiens) (UniProt P52926).
Sequence of High mobility group protein HMGI-C (Homo sapiens) (P52926 2-109 limits assumed): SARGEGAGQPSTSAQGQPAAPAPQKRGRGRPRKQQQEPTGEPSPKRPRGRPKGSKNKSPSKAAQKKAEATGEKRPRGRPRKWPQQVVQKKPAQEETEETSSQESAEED
For series [13], the target named is Xaa-Pro aminopeptidase 1 (Homo sapiens, UniProt Q9NQW7).
Sequence of Xaa-Pro aminopeptidase 1 (Q9NQW7 2-623 limits assumed): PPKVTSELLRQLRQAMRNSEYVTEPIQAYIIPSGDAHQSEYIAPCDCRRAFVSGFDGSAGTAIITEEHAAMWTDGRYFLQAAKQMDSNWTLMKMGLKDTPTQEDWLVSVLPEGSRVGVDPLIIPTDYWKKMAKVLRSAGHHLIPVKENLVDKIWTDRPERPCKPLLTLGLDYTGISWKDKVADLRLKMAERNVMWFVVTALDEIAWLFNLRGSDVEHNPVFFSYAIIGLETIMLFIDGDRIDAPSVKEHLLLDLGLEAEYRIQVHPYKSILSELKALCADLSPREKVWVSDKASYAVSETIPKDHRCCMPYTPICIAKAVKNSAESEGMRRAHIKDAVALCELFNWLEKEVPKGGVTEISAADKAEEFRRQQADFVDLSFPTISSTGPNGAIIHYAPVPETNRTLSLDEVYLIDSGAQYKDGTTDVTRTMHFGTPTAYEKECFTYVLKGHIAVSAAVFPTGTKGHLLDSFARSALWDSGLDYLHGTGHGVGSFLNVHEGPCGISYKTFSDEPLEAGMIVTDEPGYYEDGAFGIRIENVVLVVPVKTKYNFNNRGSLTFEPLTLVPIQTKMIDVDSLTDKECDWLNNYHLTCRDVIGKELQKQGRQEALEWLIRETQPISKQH
Series [14] has as its target U6 snRNA-associated Sm-like protein LSm8 (Homo sapiens) (UniProt O95777).
In series [15] the target is recombinant CK2α. The series is described as follows: cell-based or functional assay.
The test system of series [16] is MRC-5. Nature of the series: Cell viability, Alamar Blue (benign cells). In kind it is cell-based. The following applies: MRC-5, Benign, Lung fibroblasts; 48 hours of incubation.
In series [17] the test system is RR-805. The series is described as follows: Cell viability, Alamar Blue (benign cells). The following applies: RR-805, Benign, Renal primary fibroblasts; 48 hours of incubation. The class given is cell-based.
Series [18] concerns HepG2. The series is described as follows: Tumor cell viability, Alamar Blue. The class given is cell-based, human. The conditions noted are these: HepG2, Malignant, Hepatocellular carcinoma; 48 hours of incubation. The protocol: (§1) All human tumor cells used in the present application were obtained from the American Type Culture Collection (ATCC, Manassas, VA, USA) and cultured in RPMI 1640 medium (Gibco) supplemented with 10% (v/v) fetal bovine serum and gentamicin (50 µg/ml) at 37 °C in a 5% CO2 atmosphere. The effects of the lipopeptide and the CIGB-300 peptide on tumor cell viability were assessed using Alamar Blue reagent (Life Technologies, Carlsbad, CA, USA). Cells were seeded in flatbottom 96-well plates (2×10^5 cells/mL, 200 µL/well) and incubated for 24 hours, followed by treatment with the lipopeptide and the CIGB-300 peptide serially diluted from 100 to 3.12 µM at a 1:2 ratio. After 48 hours of incubation, 10% (v/v) Alamar Blue was added, and the cell suspension was incubated for an additional 4 hours. Fluorescence intensity in the microplates was measured, and IC50 values were calculated using CalcuSyn software (version 2.1) (Biosoft, Cambridge, UK).

For series [19], the system named is NCI-H82. Nature of the series: Tumor cell viability, Alamar Blue. The class given is cell-based, human. The following applies: NCI-H82, Malignant, SCLC; 48 hours of incubation. The protocol: as §1
For series [20], the system named is A431. The series is described as follows: Tumor cell viability, Alamar Blue. The class given is cell-based, human. The following applies: A431, Malignant, Vulvar epidermoid carcinoma; 48 hours of incubation. The protocol:
as §1

For series [21], the system named is NCI-H522. The series is described as follows: Tumor cell viability, Alamar Blue. The conditions noted are these: NCI-H522, Malignant, NSCLC; 48 hours of incubation. The class given is cell-based, human. The procedure:
as §1

Series [22] has as its system U87. The series is described as follows: Tumor cell viability, Alamar Blue. The conditions noted are these: U87, Malignant, Glioblastoma; 48 hours of incubation. The class given is cell-based, human. The protocol: as §1
For series [23], the system named is SW948. The series is described as follows: Tumor cell viability, Alamar Blue. The following applies: SW948, Malignant, Colon adenocarcinoma; 48 hours of incubation. The class given is cell-based, human. The protocol:
as §1

For series [24], the system named is SK-MES1. Nature of the series: Tumor cell viability, Alamar Blue. In kind it is cell-based, human. The conditions noted are these: SK-MES1, Malignant, NSCLC; 48 hours of incubation. The procedure: as §1
For series [25], the system named is Hep-2. The series is described as follows: Tumor cell viability, Alamar Blue. In kind it is cell-based, human. The following applies: Hep-2, Malignant, Laryngeal squamous cell carcinoma; 48 hours of incubation. The protocol:
as §1

Series [26] deals with PC3. Nature of the series: Tumor cell viability, Alamar Blue. The class given is cell-based, human. The conditions noted are these: PC3, Malignant, Prostate cancer; 48 hours of incubation. The procedure: as §1
Series [27] deals with NCI-H226. The series is described as follows: Tumor cell viability, Alamar Blue. In kind it is cell-based, human. The following applies: NCI-H226, Malignant, NSCLC; 48 hours of incubation. The procedure: as §1
Series [28] deals with A549. The series is described as follows: Tumor cell viability, Alamar Blue. In kind it is cell-based, human. The conditions noted are these: A549, Malignant, NSCLC; 48 hours of incubation. The protocol: as §1
For series [29], the system named is NCI-H460. Nature of the series: Tumor cell viability, Alamar Blue. In kind it is cell-based, human. The following applies: NCI-H460, Malignant, NSCLC; 48 hours of incubation. The protocol: as §1
In series [30] the test system is NCI-H125. The series is described as follows: Tumor cell viability, Alamar Blue. The class given is cell-based, human. The conditions noted are these: NCI-H125, Malignant, NSCLC; 48 hours of incubation. The procedure:
as §1

Where [31] appears, read: With NAC, 2 hours of incubation.

Sequence of Replication protein A 32 kDa subunit (P15927 whole entry): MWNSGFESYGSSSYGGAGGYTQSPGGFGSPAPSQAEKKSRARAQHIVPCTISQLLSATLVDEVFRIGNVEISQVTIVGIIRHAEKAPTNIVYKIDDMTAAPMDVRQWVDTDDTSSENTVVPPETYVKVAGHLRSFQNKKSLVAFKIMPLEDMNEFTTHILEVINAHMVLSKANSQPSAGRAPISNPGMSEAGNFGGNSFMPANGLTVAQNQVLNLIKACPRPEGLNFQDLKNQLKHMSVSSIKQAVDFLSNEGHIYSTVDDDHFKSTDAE
Sequence of Arginyl-tRNA-protein transferase 1 (O95260 whole entry): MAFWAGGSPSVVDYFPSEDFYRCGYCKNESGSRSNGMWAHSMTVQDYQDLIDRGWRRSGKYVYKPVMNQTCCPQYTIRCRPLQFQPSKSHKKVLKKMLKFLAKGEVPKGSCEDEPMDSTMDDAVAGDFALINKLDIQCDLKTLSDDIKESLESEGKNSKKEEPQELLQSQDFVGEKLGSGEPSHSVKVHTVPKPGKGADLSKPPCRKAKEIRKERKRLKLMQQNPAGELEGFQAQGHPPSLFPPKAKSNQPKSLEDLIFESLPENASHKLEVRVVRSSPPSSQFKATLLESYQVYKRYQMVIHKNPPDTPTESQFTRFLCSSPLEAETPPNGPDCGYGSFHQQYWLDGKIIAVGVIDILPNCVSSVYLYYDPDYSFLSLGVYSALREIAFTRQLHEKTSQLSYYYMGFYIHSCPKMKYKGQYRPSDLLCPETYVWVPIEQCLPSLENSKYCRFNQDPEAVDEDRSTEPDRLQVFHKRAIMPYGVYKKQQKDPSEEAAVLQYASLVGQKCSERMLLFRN
Sequence of Cullin-1 (Q13616 whole entry): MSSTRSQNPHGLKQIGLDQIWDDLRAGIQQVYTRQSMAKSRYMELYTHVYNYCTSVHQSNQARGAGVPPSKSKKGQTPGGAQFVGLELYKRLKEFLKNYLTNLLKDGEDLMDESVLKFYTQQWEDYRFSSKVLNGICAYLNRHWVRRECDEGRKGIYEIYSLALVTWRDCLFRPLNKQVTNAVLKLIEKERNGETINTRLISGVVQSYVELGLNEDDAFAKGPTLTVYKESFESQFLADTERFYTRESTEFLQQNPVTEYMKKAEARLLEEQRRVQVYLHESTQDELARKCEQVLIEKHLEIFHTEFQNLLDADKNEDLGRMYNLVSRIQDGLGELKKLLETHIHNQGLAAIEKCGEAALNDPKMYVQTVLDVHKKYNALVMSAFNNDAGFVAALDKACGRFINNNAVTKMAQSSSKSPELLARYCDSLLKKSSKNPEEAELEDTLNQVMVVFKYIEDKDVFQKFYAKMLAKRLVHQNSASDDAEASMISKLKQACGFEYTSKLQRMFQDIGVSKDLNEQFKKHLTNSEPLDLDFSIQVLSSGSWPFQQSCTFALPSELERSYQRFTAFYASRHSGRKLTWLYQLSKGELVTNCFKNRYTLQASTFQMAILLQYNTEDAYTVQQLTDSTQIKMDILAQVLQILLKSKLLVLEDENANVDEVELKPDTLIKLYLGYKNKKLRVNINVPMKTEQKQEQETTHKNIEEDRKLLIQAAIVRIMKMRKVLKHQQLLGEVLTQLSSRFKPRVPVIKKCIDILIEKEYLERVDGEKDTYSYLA
Sequence of Collagen alpha-1(V) chain (P20908 38-1605 limits assumed): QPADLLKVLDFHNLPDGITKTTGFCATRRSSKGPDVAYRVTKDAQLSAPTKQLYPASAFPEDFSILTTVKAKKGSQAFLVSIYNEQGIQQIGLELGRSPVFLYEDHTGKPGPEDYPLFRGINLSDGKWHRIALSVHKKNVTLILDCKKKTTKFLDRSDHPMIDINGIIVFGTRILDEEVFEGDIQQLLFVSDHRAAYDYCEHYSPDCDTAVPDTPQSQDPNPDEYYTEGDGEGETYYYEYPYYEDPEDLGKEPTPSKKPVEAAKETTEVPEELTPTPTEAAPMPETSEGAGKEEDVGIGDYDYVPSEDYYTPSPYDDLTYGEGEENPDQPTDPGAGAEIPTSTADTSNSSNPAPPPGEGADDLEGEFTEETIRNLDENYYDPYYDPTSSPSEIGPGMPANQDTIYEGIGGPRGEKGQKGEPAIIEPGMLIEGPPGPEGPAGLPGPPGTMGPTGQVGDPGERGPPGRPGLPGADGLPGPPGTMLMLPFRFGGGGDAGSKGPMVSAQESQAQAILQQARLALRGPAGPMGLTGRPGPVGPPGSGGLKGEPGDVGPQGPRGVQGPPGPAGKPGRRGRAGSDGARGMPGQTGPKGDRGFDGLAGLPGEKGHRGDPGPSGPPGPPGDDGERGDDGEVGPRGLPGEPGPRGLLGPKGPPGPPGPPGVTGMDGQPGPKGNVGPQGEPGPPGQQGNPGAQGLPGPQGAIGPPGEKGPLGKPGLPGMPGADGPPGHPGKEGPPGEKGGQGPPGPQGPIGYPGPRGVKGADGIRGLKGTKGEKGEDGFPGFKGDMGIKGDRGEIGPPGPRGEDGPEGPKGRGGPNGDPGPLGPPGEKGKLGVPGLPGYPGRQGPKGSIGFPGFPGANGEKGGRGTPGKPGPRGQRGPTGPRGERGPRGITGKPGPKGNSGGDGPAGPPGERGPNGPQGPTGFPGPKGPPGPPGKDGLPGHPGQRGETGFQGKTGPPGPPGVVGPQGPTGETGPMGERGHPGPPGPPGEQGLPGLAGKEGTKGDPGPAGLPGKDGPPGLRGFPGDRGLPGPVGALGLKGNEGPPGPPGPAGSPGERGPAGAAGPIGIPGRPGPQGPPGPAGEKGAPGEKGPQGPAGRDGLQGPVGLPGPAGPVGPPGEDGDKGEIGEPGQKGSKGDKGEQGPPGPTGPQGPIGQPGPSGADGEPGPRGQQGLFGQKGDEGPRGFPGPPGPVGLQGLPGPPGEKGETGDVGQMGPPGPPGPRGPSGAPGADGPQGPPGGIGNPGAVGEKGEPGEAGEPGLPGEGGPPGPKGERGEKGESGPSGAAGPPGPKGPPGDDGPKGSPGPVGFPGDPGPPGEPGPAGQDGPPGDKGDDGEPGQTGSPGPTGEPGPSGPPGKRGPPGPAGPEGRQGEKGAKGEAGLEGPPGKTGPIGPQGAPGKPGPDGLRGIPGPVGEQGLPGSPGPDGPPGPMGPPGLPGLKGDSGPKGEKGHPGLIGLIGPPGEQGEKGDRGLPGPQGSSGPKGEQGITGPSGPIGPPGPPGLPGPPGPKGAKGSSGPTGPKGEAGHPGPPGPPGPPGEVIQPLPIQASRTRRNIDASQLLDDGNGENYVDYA
Sequence of U6 snRNA-associated Sm-like protein LSm8 (Homo sapiens) (O95777 2-96 limits assumed): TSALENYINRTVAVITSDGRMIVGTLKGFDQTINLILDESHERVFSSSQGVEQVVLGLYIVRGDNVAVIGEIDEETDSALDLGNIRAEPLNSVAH

On to `OO` [H2O2], for which the “Cell viability (%) Mean” value is listed as 94.9% in series [1] (setting [31]) and 94.0% in [1] (Without NAC). Also, the entries for the “DHE reagent (Geometric mean) Mean” value in [1] (setting [31]) and in series [1] (Without NAC) were 4175 and 4335, respectively.
As to “synthetic anti-cancer lipopeptide (decanoyl-CIGB-300)”, the Abundance ratio of lipopeptide/CIGB-300 in [2] stood at 2.86; in series [3] it was 2.1; in series [4], 5.12; in series [5], 2.62; in series [6] it was 2.01; in [7], 2.05. Also, the Abundance ratio of lipopeptide/CIGB-300 stood at 2.3 in [8]; 2.37 in [9]; 2.19 in series [10]; 2.97 in series [11]; 3.88 in series [12]; 2.26 in series [13]. Besides, the Abundance ratio of lipopeptide/CIGB-300 in series [14] worked out at 3.31.
As for CIGB-300 peptide, in series [15], the CK2 enzyme activity (CPM x10^3) at 0.00 µM peptide (baseline without peptide) worked out at 170000 CPM, the CK2 enzyme activity (CPM x10^3) at 0.097 µM peptide amounted to 171000 CPM, the CK2 enzyme activity (CPM x10^3) at 0.195 µM peptide amounted to 169000 CPM and the CK2 enzyme activity (CPM x10^3) at 0.39 µM peptide came to 162000 CPM. Besides, in series [15], the CK2 enzyme activity (CPM x10^3) at 0.781 µM peptide amounted to 158000 CPM, the CK2 enzyme activity (CPM x10^3) at 1.56 µM peptide was 109000 CPM, the CK2 enzyme activity (CPM x10^3) at 3.125 µM peptide was 92000 CPM and the CK2 enzyme activity (CPM x10^3) at 6.25 µM peptide came out at 61000 CPM. In [15], the CK2 enzyme activity (CPM x10^3) at 12.5 µM peptide was determined as 31000 CPM, the CK2 enzyme activity (CPM x10^3) at 25 µM peptide stood at 19000 CPM and the CK2 enzyme activity (CPM x10^3) at 50 µM peptide was 4000 CPM.
With `CSCC[C@@H]1NC(=O)[C@H](Cc2c[nH]c3ccccc23)NC(=O)[C@@H](NC(=O)CCNC(=O)[C@H](CCC(N)=O)NC(=O)[C@@H]2CCCN2C(=O)[C@@H]2CCCN2C(=O)[C@H](CCCNC(=N)N)NC(=O)[C@H](CCCNC(=N)N)NC(=O)[C@H](CCCNC(=N)N)NC(=O)[C@H](CCC(N)=O)NC(=O)[C@H](CCCNC(=N)N)NC(=O)[C@H](CCCNC(=N)N)NC(=O)[C@H](CCCCN)NC(=O)[C@H](CCCCN)NC(=O)[C@H](CCCNC(=N)N)NC(=O)CN)CSSC[C@@H](C(N)=O)NC(=O)[C@H]([C@@H](C)O)NC(=O)CNC(=O)[C@H](CC(C)C)NC(=O)[C@H](Cc2c[nH]cn2)NC(=O)[C@H](CCCNC(=N)N)NC(=O)[C@@H]2CCCN2C(=O)[C@H](CO)NC1=O` [The CIGB-300 peptide, reference compound], the IC50 in series [16] was determined as 198 ± 8 µM; in series [17] it was 230 ± 6 µM; in series [18], 128 ± 44 µM; in [19], 39.7 ± 11 µM; in series [20], 90.7 ± 4 µM; in series [21], 70 µM. Moreover, the IC50 in [22] worked out at 154 ± 15 µM; in [23], 143.1 ± 1 µM; in [24], 150 ± 7 µM; in [25], 30.7 ± 2 µM; in [26], 170 ± 5 µM; in series [27], 70.8 µM. Moreover, the IC50 in series [28] was 180 ± 30 µM; in series [29], 30 ± 9 µM; in series [30] it was 76.3 ± 2 µM.

The values above are taken from patent EP4796565A1, “SYNTHESIZED ANTI-CANCER LIPOPEPTIDE AND USE THEREOF” (Yongzhou Zhonggu Biotechnology Co., Ltd., priority 2023, dated 2025).
